Assay results as given in article PMC9890227.

Legend:
Assay in all cases: EMSA
MutSbeta (MSH2-MSH3) = MutSbeta (MSH2-MSH3) (Homo sapiens, UniProt P43246;P20585 1-934;1-1137)
MutLgamma (MLH1-MLH3) = MutLgamma (MLH1-MLH3) (Homo sapiens, UniProt P40692;Q9UHC1 1-756;1-1453)
MutLbeta (MLH1-PMS1) = MutLbeta (MLH1-PMS1) (Homo sapiens, UniProt P40692;P54277 1-756;1-932)

Measured: binding result

Sequence of MutLgamma (MLH1-MLH3) (P40692 whole entry, chain 1 of 2): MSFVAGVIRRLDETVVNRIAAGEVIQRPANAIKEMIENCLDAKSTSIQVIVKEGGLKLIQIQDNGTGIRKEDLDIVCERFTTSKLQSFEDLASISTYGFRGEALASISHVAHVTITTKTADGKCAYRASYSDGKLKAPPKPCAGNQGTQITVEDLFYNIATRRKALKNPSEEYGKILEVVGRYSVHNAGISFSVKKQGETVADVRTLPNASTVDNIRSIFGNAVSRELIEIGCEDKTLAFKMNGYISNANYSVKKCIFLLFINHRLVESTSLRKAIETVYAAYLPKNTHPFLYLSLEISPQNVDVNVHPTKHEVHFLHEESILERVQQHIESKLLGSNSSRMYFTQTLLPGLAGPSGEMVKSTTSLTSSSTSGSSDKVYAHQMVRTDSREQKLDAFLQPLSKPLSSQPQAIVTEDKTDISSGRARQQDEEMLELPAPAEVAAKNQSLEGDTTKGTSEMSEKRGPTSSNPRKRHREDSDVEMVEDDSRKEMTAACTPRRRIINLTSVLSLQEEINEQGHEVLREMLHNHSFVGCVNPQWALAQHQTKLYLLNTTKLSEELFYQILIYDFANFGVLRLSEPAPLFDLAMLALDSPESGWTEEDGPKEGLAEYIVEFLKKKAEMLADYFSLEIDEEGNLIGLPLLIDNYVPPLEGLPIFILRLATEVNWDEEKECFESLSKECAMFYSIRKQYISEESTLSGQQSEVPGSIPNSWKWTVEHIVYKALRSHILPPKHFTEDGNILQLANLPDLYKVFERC
Sequence of MutLgamma (MLH1-MLH3) (Q9UHC1 whole entry, chain 2 of 2): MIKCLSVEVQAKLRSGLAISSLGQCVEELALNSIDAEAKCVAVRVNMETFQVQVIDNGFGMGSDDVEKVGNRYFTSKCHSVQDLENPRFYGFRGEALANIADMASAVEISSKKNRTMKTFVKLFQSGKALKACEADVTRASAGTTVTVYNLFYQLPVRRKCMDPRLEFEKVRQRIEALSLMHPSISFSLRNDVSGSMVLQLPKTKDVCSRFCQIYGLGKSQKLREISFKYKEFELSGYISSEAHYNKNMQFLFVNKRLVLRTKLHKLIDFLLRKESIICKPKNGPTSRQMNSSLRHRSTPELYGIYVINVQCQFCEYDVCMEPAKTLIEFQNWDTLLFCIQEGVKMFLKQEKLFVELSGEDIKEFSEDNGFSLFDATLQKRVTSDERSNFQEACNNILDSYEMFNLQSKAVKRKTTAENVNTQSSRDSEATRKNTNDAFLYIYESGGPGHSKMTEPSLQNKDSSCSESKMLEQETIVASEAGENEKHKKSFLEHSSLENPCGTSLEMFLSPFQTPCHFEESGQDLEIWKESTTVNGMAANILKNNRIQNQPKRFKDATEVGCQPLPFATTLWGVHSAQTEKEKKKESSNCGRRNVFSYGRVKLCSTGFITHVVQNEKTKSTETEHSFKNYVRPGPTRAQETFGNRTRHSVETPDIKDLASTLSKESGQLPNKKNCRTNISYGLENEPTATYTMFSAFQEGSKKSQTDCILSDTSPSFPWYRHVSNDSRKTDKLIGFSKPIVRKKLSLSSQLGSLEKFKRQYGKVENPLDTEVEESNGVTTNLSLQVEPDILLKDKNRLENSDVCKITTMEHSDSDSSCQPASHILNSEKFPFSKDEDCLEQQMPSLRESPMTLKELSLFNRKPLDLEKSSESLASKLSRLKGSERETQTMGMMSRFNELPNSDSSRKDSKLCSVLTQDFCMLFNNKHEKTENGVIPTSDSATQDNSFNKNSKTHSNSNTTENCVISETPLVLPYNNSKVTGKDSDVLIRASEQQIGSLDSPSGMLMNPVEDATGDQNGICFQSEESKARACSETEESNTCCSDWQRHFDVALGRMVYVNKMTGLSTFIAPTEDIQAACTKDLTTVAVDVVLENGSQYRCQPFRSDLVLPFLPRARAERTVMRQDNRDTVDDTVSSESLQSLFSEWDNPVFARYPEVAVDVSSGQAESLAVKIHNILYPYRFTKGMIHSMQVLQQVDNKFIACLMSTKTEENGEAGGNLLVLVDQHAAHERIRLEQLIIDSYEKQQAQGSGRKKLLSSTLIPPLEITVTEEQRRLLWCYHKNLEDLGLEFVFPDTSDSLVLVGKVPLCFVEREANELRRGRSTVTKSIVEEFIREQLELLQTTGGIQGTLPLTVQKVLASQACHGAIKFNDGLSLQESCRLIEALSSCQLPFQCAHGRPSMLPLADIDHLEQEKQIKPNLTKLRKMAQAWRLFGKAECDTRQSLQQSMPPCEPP
Sequence of MutLbeta (MLH1-PMS1) (P40692 whole entry, chain 1 of 2): as the sequence (P40692 whole entry, chain 1 of 2) above
Sequence of MutLbeta (MLH1-PMS1) (P54277 whole entry, chain 2 of 2): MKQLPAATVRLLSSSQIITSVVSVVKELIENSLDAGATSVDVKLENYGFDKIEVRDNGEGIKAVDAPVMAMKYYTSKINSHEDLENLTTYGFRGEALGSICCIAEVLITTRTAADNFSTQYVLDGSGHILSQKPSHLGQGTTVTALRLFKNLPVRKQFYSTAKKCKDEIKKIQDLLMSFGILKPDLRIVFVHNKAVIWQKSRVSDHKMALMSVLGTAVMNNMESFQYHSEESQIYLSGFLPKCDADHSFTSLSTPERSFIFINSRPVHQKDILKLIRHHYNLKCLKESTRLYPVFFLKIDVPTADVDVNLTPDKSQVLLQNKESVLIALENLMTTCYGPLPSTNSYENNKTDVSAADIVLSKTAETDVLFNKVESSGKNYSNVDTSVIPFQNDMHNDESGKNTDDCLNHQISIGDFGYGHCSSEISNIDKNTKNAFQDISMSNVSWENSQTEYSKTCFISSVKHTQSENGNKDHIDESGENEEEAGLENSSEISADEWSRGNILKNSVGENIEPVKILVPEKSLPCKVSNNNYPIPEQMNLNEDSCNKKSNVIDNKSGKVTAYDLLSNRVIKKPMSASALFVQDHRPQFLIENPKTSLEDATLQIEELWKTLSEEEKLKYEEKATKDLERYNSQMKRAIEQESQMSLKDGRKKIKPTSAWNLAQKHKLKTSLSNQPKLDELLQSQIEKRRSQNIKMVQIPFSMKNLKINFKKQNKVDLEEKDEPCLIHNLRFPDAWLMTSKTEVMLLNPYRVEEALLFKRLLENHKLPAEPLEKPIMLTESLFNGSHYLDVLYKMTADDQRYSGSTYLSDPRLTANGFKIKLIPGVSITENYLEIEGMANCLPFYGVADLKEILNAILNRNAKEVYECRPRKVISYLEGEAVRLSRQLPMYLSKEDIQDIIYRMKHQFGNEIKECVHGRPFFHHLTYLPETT

B1: Holliday junction (PC1253/PC1254/PC1255/PC1256) (structured_DNA)
DNA 1: TGGGTCAACGTGGGCAAAGATGTCCTAGCAATGTAATCGTCTATGACGTT
DNA 2: TGCCGAATTCTACCAGTGCCAGTGATGGACATCTTTGCCCACGTTGACCC
DNA 3: GTCGGATCCTCTAGACAGCTCCATGATCACTGGCACTGGTAGAATTCGGC
DNA 4: CAACGTCACAGACGATTACATTGCTACATGGAGCTGTCTAGAGGATCCGA
binds: MutSbeta (MSH2-MSH3) | MutLgamma (MLH1-MLH3) | MutLbeta (MLH1-PMS1)
